One assay has as its target HLA-A*3301 (human). As to the kind of experiment: competition vs 125I probe, purified HLA.
Assay [1] has as its target HLA-B*4403 (human). As to the kind of experiment: competitive inhibition of labeled probe peptide, purified HLA.
Assay [2] deals with HLA-B*4403 (human). As to the kind of experiment: competition vs labelled reference peptide on HLA class I.
A further assay has as its target HLA-A*3101 (human). As to the kind of experiment: competition vs 125I probe, purified HLA.
The next assay concerns the target HLA-B*4501 (human). Nature of the assay: competition vs labelled reference peptide on HLA class I.
For assay [3], the target named is HLA-B*4403 (human). As to the kind of experiment: competition with labeled probe peptide, purified HLA class I.
The target of a further assay is HLA-B*1801 (human). The description is as above.

Non-standard residues stand in square brackets, D forms with d. No end group written: not given here. Abu = CC[C@H](N)C(=O)O

In general, IC50 refers to the point on the concentration scale where inhibition reaches its midpoint. A higher IC50 goes with a need for much substance. The molecule [Abu]VYSPALNR [p53.124.B1V2R9] gave an IC50 with HLA-A*3301 of 85 nM.

As to SEYLQLVFGIEVV [MAGE2 155 SEYLQLVFGIEVV], the IC50 with HLA-B*4403 [1] amounted to 7.6 nM. With GEGLACHQLCA [GEGLACHQLCA (Her2/neu position 506, 11-mer)], the concentration for half-maximal inhibition (IC50) with HLA-B*4403 [2] is 2.7 nM.

As for SV[Abu]MGGMNK [p53.240.V2B3K9], the IC50 with HLA-A*3101 was 9000 nM. This lies in the single-digit micromolar range. EEGACQPCPI [EEGACQPCPI (Her2/neu position 619, 10-mer)] yielded an IC50 with HLA-B*4501 of 401 nM. As to SS[Abu]MGGMNRK [p53.240.B3K10], in the assay with HLA-A*3101, the IC50 amounted to 720 nM. Take PEEGLEARGEA [PEEGLEARGEA (MAGE2, position 12)]: in the assay with HLA-B*4403 [3], the IC50 is 950 nM. On to LESEFQAAL [LESEFQAAL (MAGE3, position printed 301)], for which, in the assay with HLA-B*1801, the IC50 was 5.4 nM.
